Test results as given in paper PMC4198130, “Protein Interactions of the Vesicular Glutamate Transporter VGLUT1” (PLoS ONE, 2014).

Experiments:
[1] = biological target: T1, GST fusion of the SH3 domain of Fyn (SH3 domain array) (human, UniProt P06241 82-143); test: peptide or protein array; TranSignal SH3 and WW Domain Arrays (Panomics/Affymetrix): purified GST fusions of human SH3 or WW domains immobilised on a membrane, in duplicate at 100 ng; His-PP1 in solution, detected with anti-His antibody (methods: purified His-PP1; results and legend: bacterial extract with the tagged protein); details: both partners purified
T1 construct: Fyn, human, SH3 domain; source: bought: Panomics/Affymetrix TranSignal SH3 Domain Array (purified GST fusion on a membrane)

[2] = biological target: T2, GST-Lyn-SH3 (Panomics) (human, UniProt P07948 63-123); test: as above; details: both partners purified
T2 construct: Lyn, human, SH3 domain; also called SH3 domain of Lyn; source: bought: Panomics (purified GST-Lyn-SH3 protein; also on the TranSignal SH3 Domain Array)

[3] = biological target: GST fusion of the SH3 domain of Src (SH3 domain array) (human, UniProt P12931 84-145); test: as above; details: both partners purified
[4] = biological target: T3, GST fusion of the SH3 domain of Hck (SH3 domain array) (human, UniProt P08631 78-138); test: as above; details: both partners purified
T3 construct: Hck, human, SH3 domain; source: bought: Panomics/Affymetrix TranSignal SH3 Domain Array (purified GST fusion on a membrane)

[5] = biological target: T4, GST fusion of the SH3 domain of sorting nexin 9 (Panomics) (human, UniProt Q9Y5X1 1-62); test: as above; details: both partners purified
T4 construct: sorting nexin 9, human, SH3 domain; also called SNX9; source: bought: Panomics/Affymetrix (on the TranSignal SH3 Domain Array; GST fusion for pull-down)

[6] = biological target: T5, GST fusion of the SH3 domain of EPS8 (Panomics) (human, UniProt Q12929 531-590); test: as above; details: both partners purified
T5 construct: EPS8, human, SH3 domain; source: bought: Panomics/Affymetrix (on the TranSignal SH3 Domain Array; GST fusion for pull-down)

[7] = biological target: T2, GST-Lyn-SH3 (Panomics); test: pull-down; GST fusions of SH3 or WW domains on glutathione sepharose beads, incubated with detergent-solubilized (2% TX-100) rat brain extract, RT 60 min; bound VGLUT1 by immunoblot, band intensity normalised to lysate; details: one partner purified
[8] = biological target: T6, GST fusion of the second SH3 domain of Nck1 (human, UniProt P16333 106-165); test: as above; details: one partner purified
T6 construct: Nck1, human, second SH3 domain (D2); also called Nck1 D2

[9] = biological target: T7, GST fusion of the third SH3 domain of Nck1 (human, UniProt P16333 190-252); test: as above; details: one partner purified
T7 construct: Nck1, human, third SH3 domain (D3); also called Nck1 D3

[10] = biological target: T8, GST fusion of the first SH3 domain of Nck2 (human, UniProt O43639 2-61); test: as above; details: one partner purified
T8 construct: Nck2, human, first SH3 domain (D1); also called Nck2 D1

[11] = biological target: T9, GST fusion of the SH3 domain of human Lyn (pGEX, from Clifford Lowell) (human, UniProt P07948 63-123); test: as above; details: one partner purified
T9 construct: Lyn, human, SH3 domain; That the pGEX constructs from C; also called GST-Lyn

[12] = biological target: T10, GST fusion of the SH3 domain of human Fyn (pGEX, from Clifford Lowell) (human, UniProt P06241 82-143); test: as above; details: one partner purified
T10 construct: Fyn, human, SH3 domain; also called GST-Fyn
T10 sequence (P06241 82-143): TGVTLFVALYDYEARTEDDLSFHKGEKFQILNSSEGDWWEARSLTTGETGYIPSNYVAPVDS

T2 sequence (P07948 63-123): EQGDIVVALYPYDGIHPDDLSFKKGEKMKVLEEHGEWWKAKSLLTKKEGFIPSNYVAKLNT
T8 sequence (O43639 2-61): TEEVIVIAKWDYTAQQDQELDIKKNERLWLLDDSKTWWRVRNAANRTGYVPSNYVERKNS
T4 sequence (Q9Y5X1 1-62): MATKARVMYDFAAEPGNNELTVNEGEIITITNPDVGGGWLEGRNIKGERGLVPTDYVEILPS
T5 sequence (Q12929 531-590): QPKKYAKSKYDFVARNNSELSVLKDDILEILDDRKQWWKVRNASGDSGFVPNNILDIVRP
T1 sequence (P06241 82-143): as the sequence (P06241 82-143) above
T3 sequence (P08631 78-138): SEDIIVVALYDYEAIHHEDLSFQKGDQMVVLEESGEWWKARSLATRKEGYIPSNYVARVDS
T9 sequence (P07948 63-123): as the sequence (P07948 63-123) above

B1: His-tagged VGLUT1 C-terminal peptide (amino acids 513-549) (domain or fragment, rat, UniProt Q62634 513-549, looked up)
chain: HDQLAGSDESEMEDEVEPPGAPPAPPPSYGATHSTVQ
notes: VGLUT1 (vesicular glutamate transporter 1), rat, amino acids 513-549 of the C-terminus (acidic cluster, first polyproline domain PP1, PEST); Cloned in the Ligand Expression Vector (Panomics/Affymetrix); also called His-PP1; His-VGLUT1 PP1; source: E. coli, purified (Ni-NTA, imidazole elution, dialysis) by the methods; soluble bacterial extract by the results and the legend
binding result [1]: binds | binding result [2]: binds | binding result [3]: binds | binding result [4]: binds | binding result [5]: binds | binding result [6]: binds

B2: VGLUT1 from rat brain extract (natural protein, rat (endogenous in rat brain), UniProt Q62634 1-560, looked up)
chain: MEFRQEEFRKLAGRALGRLHRLLEKRQEGAETLELSADGRPVTTHTRDPPVVDCTCFGLPRRYIIAIMSGLGFCISFGIRCNLGVAIVSMVNNSTTHRGGHVVVQKAQFNWDPETVGLIHGSFFWGYIVTQIPGGFICQKFAANRVFGFAIVATSTLNMLIPSAARVHYGCVIFVRILQGLVEGVTYPACHGIWSKWAPPLERSRLATTAFCGSYAGAVVAMPLAGVLVQYSGWSSVFYVYGSFGIFWYLFWLLVSYESPALHPSISEEERKYIEDAIGESAKLMNPVTKFNTPWRRFFTSMPVYAIIVANFCRSWTFYLLLISQPAYFEEVFGFEISKVGLVSALPHLVMTIIVPIGGQIADFLRSRHIMSTTNVRKLMNCGGFGMEATLLLVVGYSHSKGVAISFLVLAVGFSGFAISGFNVNHLDIAPRYASILMGISNGVGTLSGMVCPIIVGAMTKHKTREEWQYVFLIASLVHYGGVIFYGVFASGEKQPWAEPEEMSEEKCGFVGHDQLAGSDESEMEDEVEPPGAPPAPPPSYGATHSTVQPPRPPPPVRDY
notes: VGLUT1, endogenous in rat brain; source: endogenous, detergent-solubilized rat brain extract
band intensity normalised to lysate [7]: 0.718 a.u. | band intensity normalised to lysate [8]: 0.763 a.u. | band intensity normalised to lysate [9]: 0.183 a.u. | band intensity normalised to lysate [10]: 0.103 a.u. | band intensity normalised to lysate [11]: 0.877 a.u. | band intensity normalised to lysate [12]: 0.362 a.u.
